Earlier results as cited in paper PMC3036779.

Target: GABARAP (Homo sapiens) (UniProt O95166)
Chain of UniProt O95166 (O95166 1-116): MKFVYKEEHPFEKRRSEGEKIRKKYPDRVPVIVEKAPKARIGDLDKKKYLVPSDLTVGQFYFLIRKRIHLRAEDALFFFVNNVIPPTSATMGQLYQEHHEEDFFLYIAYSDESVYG

Kd: 100 µM
Substance: Nix (from UniProt O60238)
